Measured values from patent publication US20240092924A1 (RIKEN, published 2024).
Values joined by “and” are separate entries in the source; they are usually repeats but may differ in a detail not shown here. Equal values may be shown once.

Assays:
[1] = molecular target: T1, wild-type human sodium taurocholate cotransporting polypeptide (human NTCP) (human, UniProt Q14973 1-349); experiment: cell-based or functional assay
T1 sequence: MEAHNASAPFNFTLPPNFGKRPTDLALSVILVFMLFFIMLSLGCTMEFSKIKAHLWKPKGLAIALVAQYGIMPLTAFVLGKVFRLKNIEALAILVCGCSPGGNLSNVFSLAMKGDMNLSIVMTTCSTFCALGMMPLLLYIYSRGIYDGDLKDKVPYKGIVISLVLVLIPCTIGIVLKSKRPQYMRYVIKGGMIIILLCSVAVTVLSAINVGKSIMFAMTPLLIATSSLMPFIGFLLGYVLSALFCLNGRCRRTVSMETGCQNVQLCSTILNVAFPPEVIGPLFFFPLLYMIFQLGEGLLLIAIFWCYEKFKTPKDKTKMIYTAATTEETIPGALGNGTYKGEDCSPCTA

[2] = molecular target: T2, epitope region-containing peptide fragment (AFPPEVIGPLFFFPLLYMIFQLGEG-biotin) (C-terminal biotin); experiment: SPR (BIAcore 2000, 25 C); antibody captured via anti-human IgG on CM5, peptide as analyte; 1:1 Langmuir fit
T2 peptide: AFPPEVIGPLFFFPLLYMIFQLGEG
Description: (§1) In short, a carboxymethylated dextran biosensor chip (CM5, BIAcore Inc.) was activated by N-ethyl-N′-(3-dimethylaminopropyl)-carbodiimide hydrochloride (EDC) and N-hydroxysuccinimide (NHS) in accordance with the provider's instruction. An anti-mouse IgG antibody was diluted with 10 mM sodium acetate (pH5.2) up to 30 μg/ml. The dilution was injected at a flow rate of 5 to 10 μl/minute such that the reaction unit (RU) of the protein bound became 9,000 to 14,000 RU. […] The diluted antibody was injected at a flow rate of 5 to 10 μl/minute such that the reaction unit (RU) of the protein bound became 9,000 to 14,000 RU. After injection of each of the anti IgG antibodies, 1 M ethanolamine was injected in order to block unreactive groups. […] To the chip, a solution of an epitope region-containing peptide fragment diluted with the running buffers at different concentrations was added at 25° C. at a flow rate of 10 μl/minute for 2 minutes.
(§2) Using simple one-to-one Langmuir binding model (BIAcore Evaluation software version 3.1) by fitting sensor grams of antigen-antibody association and dissociation at the same time, association rate (Ka) and dissociation rate (Kd) were calculated. A Kd/Ka ratio was calculated to obtain an equilibrium dissociation constant (KD).

[3] = molecular target: T2, epitope region-containing peptide …; experiment: SPR (BIAcore 2000, 25 C); antibody captured via anti-mouse IgG on CM5, peptide as analyte; 1:1 Langmuir fit
Description: as §1, §2

B1: Recombinant N6HB426 human chimeric IgG4 antibody (antibody)
heavy: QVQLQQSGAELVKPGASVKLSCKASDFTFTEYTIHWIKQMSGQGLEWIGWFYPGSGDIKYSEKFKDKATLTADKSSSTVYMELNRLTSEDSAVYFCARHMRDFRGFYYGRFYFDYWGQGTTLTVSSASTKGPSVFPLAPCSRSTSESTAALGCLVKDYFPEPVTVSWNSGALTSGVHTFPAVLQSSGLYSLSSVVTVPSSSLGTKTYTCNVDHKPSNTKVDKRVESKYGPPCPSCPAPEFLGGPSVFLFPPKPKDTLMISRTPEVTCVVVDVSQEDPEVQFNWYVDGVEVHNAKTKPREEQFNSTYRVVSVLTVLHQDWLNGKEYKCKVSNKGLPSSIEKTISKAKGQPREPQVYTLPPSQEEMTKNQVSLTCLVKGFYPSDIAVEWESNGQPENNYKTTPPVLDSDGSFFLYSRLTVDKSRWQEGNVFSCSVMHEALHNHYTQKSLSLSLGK
light: EIVLTQSPAIMSASPGEKVTITCRASSSVSSSYLHWYQQKSGVSPKLWIYSTSNLASGVPARFSGSGSGTSYSLTINSVEAEDAATYYCQQYSGYRWTFGGGTTLEIKRTVAAPSVFIFPPSDEQLKSGTASVVCLLNNFYPREAKVQWKVDNALQSGNSQESVTEQDSKDSTYSLSSTLTLSKADYEKHKVYACEVTHQGLSSPVTKSFNRGEC
notes: also called Recombinant N6HB426 human chimera IgG4 antibody; human chimeric antibody
With B1 the “IC50, inhibition of HBV/NL pseudo-virus infection of HepG2-human NTCP cells” value [1] was 1.7 µg/mL, the Kd [2] was 0.129 nM and the koff [2] was 1.73e-07 s⁻¹. For the same binder, the kon [2] was 1340 M⁻¹ s⁻¹.

B2: Recombinant N6HB426 mouse IgG2a antibody (antibody)
heavy: QVQLQQSGAELVKPGASVKLSCKASDFTFTEYTIHWIKQMSGQGLEWIGWFYPGSGDIKYSEKFKDKATLTADKSSSTVYMELNRLTSEDSAVYFCARHMRDFRGFYYGRFYFDYWGQGTTLTVSSAKTTAPSVYPLAPVCGGTTGSSVTLGCLVKGYFPEPVTLTWNSGSLSSGVHTFPALLQSGLYTLSSSVTVTSNTWPSQTITCNVAHPASSTKVDKKIEPRGPTIKPCPPCKCPAPNLLGGPSVFIFPPKIKDVLMISLSPIVTCVVVDVSEDDPDVQISWFVNNVEVHTAQTQTHREDYNSTLRVVSALPIQHQDWMSGKEFKCKVNNKDLPAPIERTISKPKGSVRAPQVYVLPPPEEEMTKKQVTLTCMVTDFMPEDIYVEWTNNGKTELNYKNTEPVLDSDGSYFMYSKLRVEKKNWVERNSYSCSVVHEGLHNHHTTKSFSRTPGK
light: EIVLTQSPAIMSASPGEKVTITCRASSSVSSSYLHWYQQKSGVSPKLWIYSTSNLASGVPARFSGSGSGTSYSLTINSVEAEDAATYYCQQYSGYRWTFGGGTTLEIKRADAAPTVSIFPPSSEQLTSGGASVVCFLNNFYPKDINVKWKIDGSERQNGVLNSWTDQDSKDSTYSMSSTLTLTKDEYERHNSYTCEATHKTSTSPIVKSFNRNEC
notes: this is left out as a signal peptide; also called Recombinant mouse IgG2a antibody; N6HB426-20-IgG2a antibody
B2 showed a Kd [3] of 0.313 nM, a koff [3] of 2.39e-07 s⁻¹ and a kon [3] of 762 M⁻¹ s⁻¹.

B3: N6HB426-20 antibody (antibody produced by hybridoma) (antibody, V domains shown)
VH: QVQLQQSGAELVKPGASVKLSCKASDFTFTEYTIHWIKQMSGQGLEWIGWFYPGSGDIKYSEKFKDKATLTADKSSSTVYMELNRLTSEDSAVYFCARHMRDFRGFYYGRFYFDYWGQGTTLTVSS
VL: EIVLTQSPAIMSASPGEKVTITCRASSSVSSSYLHWYQQKSGVSPKLWIYSTSNLASGVPARFSGSGSGTSYSLTINSVEAEDAATYYCQQYSGYRWTFGGGTTLEIKRA
notes: Mouse IgG purified from the hybridoma supernatant on Protein G; also called N6HB426-20 monoclonal antibody; N6HB426 antibody
In the case of B3, the “IC50, inhibition of HBV/NL pseudo-virus infection of HepG2-human NTCP cells” value [1] is reported as 1.7 µg/mL, the “IC50, inhibition of infection with pseudo-HBV (NanoLuc)” value [1] is reported as 0.27 µg/mL and 1.8 nM and the “IC50, inhibition of live HBV infection of HepG2/NTCP-myc (HBs antigen level)” value [1] is reported as 20 to 30 nM. The Kd [3] was 0.0388 nM, the koff [3] was 3.19e-08 s⁻¹ and the kon [3] was 821 M⁻¹ s⁻¹.
